Measurements reported in US11203773B2, “Designer ribosomes and methods of use thereof for incorporating non-standard amino acids into polypeptides” (Yale University, priority 2016, dated 2021).

Assays:
[1] = tested on: N[C@@H](CCC(=O)O)C(=O)O; experiment: purified protein, by the assay type; conditions: other: adenylation, GluRS; pH 7.0; 25.0 °C
Description: Adenylation of α- and β-Amino Acids Catalyzed by E. coli PheRS, GlyRS, MetRS, and GluRS. […] Briefly, assay mixtures (50 μL) assembled at 25° C. contained the requisite α- or β^3-amino acid substrate (between 5 μM and 5 mM) in 100 mM HEPES (pH 7.0) containing 100 mM KCl, 15 mM MgCl2, 2 mM ATP, 0.5 mM NaPPi, and 50 μCi [^32P]-NaPPi). Reactions were initiated upon addition of enzyme (10 nM MetRS, 10 nM PheRS, or 50 nM GlyRS; 100 nM GluRS for reactions with α-Glu or 1.13 μM GluRS for reactions with β^3-Glu), incubated for various times (10 sec to 10 min), and halted by adding a 5 μL reaction aliquot to 100 μL quenching solution (10% charcoal, 0.5% HCl). 50 μL of 200 mM NaPPi in 1.5 N HCl was then added to each quenched reaction to decrease nonspecific binding of pyrophosphate to the charcoal. Each quenched reaction was then filtered through Whatman filter paper (number 3), previously washed with washing solution (200 mM NaPPi in 1 N HCl) using a 96-well BIO-DOT® apparatus (BioRad). Each well of the apparatus was then washed four times with 200 μL aliquots of washing solution (by pipetting washing solution up and down at least 10 times per wash) to minimize nonspecific binding of pyrophosphate to charcoal. Each experimental well was paired with an analogous control well (no-enzyme control) that lacked enzyme; a single membrane contained time points for both α- and β^3-amino acid substrates and all no-enzyme controls. The membrane was allowed to dry and was protected with a sheet of Microseal B adhesive seals (Biorad) prior to exposure to a BAS Storage Phosphor screen. Screens were imaged on a Typhoon 9500FLA biomolecule imager and the signal intensity of each dot was quantified using ImageJ to determine the relative amount of [^32P]-ATP formed as a function of time (Ctime). Each raw value were corrected by subtracting the intensity of the dot corresponding to the appropriate no-enzyme control (Cblank) and the resulting corrected values of Ccorr (representing the relative amounts of ^32P-ATP formed) were plotted as a function of time to determine values of relative ^32P-ATP formed per minute. Those values were divided by the concentration of enzyme used, and the data was plotted as relative specific activity (^32P-ATP formed min^−1×μM^−1 enzyme) and fitted using Prism by performing nonlinear regression using the least squares method and Equation 1 to obtain RSA (relative specific activity) and KM values (Equation 1 and Table 2).
In Equation 1, v is the apparent relative specific activity (relative ^32P-ATP formed per minute) obtained at each substrate concentration divided by the enzyme concentration, RSA is the relative specific activity, S is the concentration of substrate, and KM is the Michaelis-Menten constant.

[2] = tested on: N[C@@H](CCC(=O)O)C(=O)O; experiment: Aminoacylation of 32P-tRNA with α- and β3-amino acids; assay type: biochemical, E. coli; conditions: other: aminoacylation, GluRS

E. coli GluRS (Escherichia coli K-12) was tested, and the Km [1] was 76.4 ± 43.0 µM, the kcat [1] was 22.5 ± 3.43 s⁻¹ and the kcat/Km [1] was 293000 ± 172000 M⁻¹ s⁻¹. For the same substance, the Km [2] was 277.1 ± 101.5 µM, the kcat [2] was 0.000767 ± 6.67e-05 s⁻¹ and the kcat/Km [2] was 2.67 ± 1 M⁻¹ s⁻¹.
